Consider seven molecules from patent US7556938B1, “Nucleic acids encoding potassium channel interactors” (Millennium Pharmaceuticals, Inc., priority 1998, dated 2009).

Changes are numbered by the printed parent chain.

B1: KChIP3: Potassium channel interacting protein KChIP3 (p19) (protein)
chain: MQRTKEAMKASDGSLLGDPGRIPLSKREGIKWQRPRFTRQALMRCCLIKWILSSAAPQGSDSSDSELELSTVRHQPEGLDQLQAQTKFTKKELQSLYRGFKNECPTGLVDEDTFKLIYSQFFPQGDATTYAHFLFNAFDADGNGAIHFEDFVVGLSILLRGTVHEKLKWAFNLYDINKDGYITKEEMLAIMKSIYDMMGRHTYPILREDAPLEHVERFFQKMDRNQDGVVTIDEFLETCQKDENIMSSMQLFENVI
B2: KChIP2: Potassium channel interacting protein KChIP2 (9ql) (protein)
chain: MRGQGRKESLSESRDLDGSYDQLTGHPPGPSKKALKQRFLKLLPCCGPQALPSVSETLAAPASLRPHRPRPLDPDSVEDEFELSTVCHRPEGLEQLQEQTKFTRRELQVLYRGFKNECPSGIVNEENFKQIYSQFFPQGDSSNYATFLFNAFDTNHDGSVSFEDFVAGLSVILRGTIDDRLSWAFNLYDLNKDGCITKEEMLDIMKSIYDMMGKYTYPALREEAPREHVESFFQKMDRNKDGVVTIEEFIESCQQDENIMRSMQLFDNVI
B3: KChIP2m: KChIP2 splice variant m (protein)
chain: MRGQGRKESLSESRDLDGSYDQLTGHPPGPSKKALKQRFLKLLPCCGPQALPSVSENSVEDEFELSTVCHRPEGLEQLQEQTKFTRRELQVLYRGFKNECPSGIVNEENFKQIYSQFFPQGDSSNYATFLFNAFDTNHDGSVSFEDFVAGLSVILRGTIDDRLSWAFNLYDLNKDGCITKEEMLDIMKSIYDMMGKYTYPALREEAPREHVESFFQKMDRNKDGVVTIEEFIESCQQDENIMRSMQLFDNVI
B4: KChIP2C: KChIP2 splice variant, rat KChIP2C (protein)
chain: B3 chain with F248S, D249P, N250L, V251L, I252N
B5: KChIP2s: KChIP2 splice variant, human KChIP2s (protein)
chain: MRGQGRKESLSDSRDLDGSYDQLTDSVDDEFELSTVCHRPEGLEQLQEQTKFTRKELQVLYRGFKNECPSGIVNEENFKQIYSQFFPQGDSSTYATFLFNAFDTNHDGSVSFEDFVAGLSVILRGTVDDRLNWAFNLYDLNKDGCITKEEMLDIMKSIYDMMGKYTYPALREEAPREHVESFFQKMDRNKDGVVTIEEFIESCQKDENIMRSMQLFDNVI
B6: KChIP2l: KChIP2 splice variant, rat KChIP2l (protein)
chain: B2 chain
B7: 8t: 8t polypeptide, splice variant of 9q (protein)
chain: MNRCPRRCRSPLGQAARSLYQLVTGSLSPDSVDDEFELSTVCHRPEGLEQLQEQTKFTRKELQVLYRGFKNECPSGIVNEENFKQIYSQFFPQGDSSTYATFLFNAFDTNHDGSVSFEDFVAGLSVILRGTVDDRLNWAFNLYDLNKDGCITKEEMLDIMKSIYDMMGKYTYPALREEAPREHVESFFQKMDRNKDGVVTIEEFIESCQKDENIMRSMQLFDNVI

Chain of rKv4.3 (Q62897 1-487 limits assumed): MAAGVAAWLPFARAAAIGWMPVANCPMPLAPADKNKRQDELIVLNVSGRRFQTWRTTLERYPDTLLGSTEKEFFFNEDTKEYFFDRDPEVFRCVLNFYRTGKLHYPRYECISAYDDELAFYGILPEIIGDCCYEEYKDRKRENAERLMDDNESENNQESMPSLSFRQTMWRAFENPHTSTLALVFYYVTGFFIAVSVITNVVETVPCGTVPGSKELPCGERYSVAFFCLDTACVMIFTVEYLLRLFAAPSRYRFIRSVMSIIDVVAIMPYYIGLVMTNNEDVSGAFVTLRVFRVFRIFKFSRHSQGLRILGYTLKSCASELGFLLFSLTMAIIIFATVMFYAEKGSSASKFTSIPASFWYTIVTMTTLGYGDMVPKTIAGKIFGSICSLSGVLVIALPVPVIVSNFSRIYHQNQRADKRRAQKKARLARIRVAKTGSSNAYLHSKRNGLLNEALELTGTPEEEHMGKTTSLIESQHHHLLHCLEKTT

For the first assay, the target named is T1, rKv4.2 (Rattus norvegicus, UniProt Q63881).
T1 construct: expressed in transfected cells; host or cells: CHO cells, transient transfection with GFP co-transfected
T1 sequence (Q63881 1-630): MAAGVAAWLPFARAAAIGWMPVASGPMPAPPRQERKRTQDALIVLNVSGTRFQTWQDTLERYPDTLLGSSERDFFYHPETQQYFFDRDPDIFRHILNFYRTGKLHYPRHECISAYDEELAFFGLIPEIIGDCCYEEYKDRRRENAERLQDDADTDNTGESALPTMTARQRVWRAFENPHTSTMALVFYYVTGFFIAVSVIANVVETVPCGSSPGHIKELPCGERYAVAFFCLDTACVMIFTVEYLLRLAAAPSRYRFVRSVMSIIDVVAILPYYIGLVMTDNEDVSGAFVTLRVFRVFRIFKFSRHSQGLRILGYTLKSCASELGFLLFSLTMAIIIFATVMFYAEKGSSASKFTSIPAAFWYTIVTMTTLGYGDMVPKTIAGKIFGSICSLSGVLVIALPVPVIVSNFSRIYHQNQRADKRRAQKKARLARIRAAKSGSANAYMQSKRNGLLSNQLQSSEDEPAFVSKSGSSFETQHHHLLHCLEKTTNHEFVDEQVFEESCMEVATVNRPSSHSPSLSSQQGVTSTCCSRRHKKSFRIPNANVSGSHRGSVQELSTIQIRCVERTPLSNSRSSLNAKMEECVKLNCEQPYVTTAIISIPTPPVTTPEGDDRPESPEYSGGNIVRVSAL
In words: Patch-clamp of Kv4.2 currents in CHO cells coexpressing KChIPs. The assay is classed as cell-based. Particulars: coexpressed with Kv4.2. On the procedure:
HEK 293 and CHO cells were used for recordings 1-3 days after a transient transfection. Whole-cell currents were recorded from cells expressing GFP, identified by their green fluorescence. […] After Gigaseal and ruptured whole-cell configuration access, resistance was less than 10 MOhms. Whole-cell bath solutions were made from a 10× Hank's balanced salt solution (GibcoBRL) with the following final concentration (in mM): 138 NaCl, 5.4 KCl, 1.3 MgCl2, 1.3 CaCl2, 5.5 D-Glukos and 10 HEPES, pH 7.4. The intracellular electrode solution consisted of (in mM) 140 KCl, 10 HEPES, 10 EGTA, 0.5 MgCl2, pH 7.3. All chemicals were from Sigma (St. Louis, Mo.) or Fisher Scientific (Houston, Tex.). Membrane currents were recorded using a EPC9 patch-clamp amplifier (HEKA, Germany). Data were analyzed using Matlab (Natick, Ma), and leak subtracted if necessary. All experiments were done at room temperature.
Because PCIPs, e.g., KChIP1 (1v), KChIP2 (9ql), and KChIP3 (p19), colocalize and coassociate with Kv4 α-subunits in brain, another critical question was to determine whether these PCIPs alter the conductance properties of Kv4 channels. To address this issue, Kv4.2 and Kv4.3 were expressed alone and in combination with individual PCIPs. CHO cells were transiently-transfected with cDNA using the DOTAP lipofection method as described by the manufacturer (Boehringer Mannheim, Inc.). Transfected cells were identified by cotransfecting enhanced GFP along with the genes of interest and subsequently determining if the cells contained green GFP fluorescence. Currents in CHO cells were measured using the patch-clamp technique (Hamill et al. 1981. Pfluegers Arch. 391: 85-100).
First, the amplitude of the Kv4.2 current increased approximately 7.5 fold in the presence of KChIP1 (amplitude of Kv4.2 alone=0.60+/−0.096 nA/cell; Kv4.2+KChIP1=4.5+/−0.55 nA/cell). […] Finally, the kinetics of Kv4.2 inactivation slowed considerably when Kv4.2 was coexpressed with KChIP1 (inactivation time constant of Kv4.2 alone=28.2+/−2.6 ms; Kv4.2+KChIP1=104.1+/−10.4 ms), while channels recovered from inactivation much more rapidly in cells expressing both Kv4.2 and KChIP1 (recovery tau=53.6+/−7.6 ms) versus cells expressing Kv4.2 alone (recovery tau=272.2+/−26.1 ms).
As to B1, the “effects on Kv4.2 current density and kinetics” value is “strikingly similar to those produced by KChIP1”. Still for that read-out and setting: the result for B2 reads “strikingly similar to those produced by KChIP1”.

Another assay has as its system rKv4.3. The experiment in a line: Two-electrode voltage clamp of Kv4.3 currents in Xenopus oocytes co-injected with KChIP cRNA. The assay is classed as cell-based, rat. Particulars: Kv4.3 co-expressed with the KChIP. On the procedure:
Frogs underwent no more than two surgeries and surgeries were performed by well established techniques. Frogs were anesthetized with ice. Total cRNA (1-10 ng) was injected into stage IV Xenopus oocytes that were harvested the previous day. The Xenopus oocytes were incubated in ND96 containing (in mM) 96 NaCl, 2 KCl, 1.8 CaCl2, 1 MgCl2, 5 HEPES, pH 7.6, plus (Gentamycin 50 μg/ml) at 18° C. Xenopus oocytes were studied 3-7 days after injection. The two-electrode voltage-clamp recordings were performed in ND96 solution using a TURBO TEC 03 Clamp Amplifier (ALA Scientific Instruments, Westbury, N.Y.). Both electrodes were filled with 3 M KCl and had electrode resistances ranging from 0.2-1 MOhm. The current signals were filtered at 1000 Hz before transferred on a PC (Gateway, Calif.) using the PULSE software (HEKA, Germany).
To investigate whether the modulatory effects of these KChIPs are specific for Kv4 channels, KChIP1 was coexpressed with Kv1.4 and Kv2.1 in Xenopus oocytes. Xenopus oocytes were injected with 1-3 ng/oocyte of cRNA which was prepared using standard in vitro transcription techniques (Sambrook et al. 1989. Molecular Cloning: a laboratory manual, Cold Spring Harbor Press). Currents in Xenopus oocytes were measured with a two-electrode voltage clamp. […] As a final control for the KChIP effects and to verify that the KChIPs' effects on Kv4 currents are independent of expression system, the above kinetic analyses were repeated after expressing Kv4.3 and KChIP mRNAs in Xenopus oocytes. The effects KChIP1 on for Kv4.3 in the Xenopus oocyte system were strikingly similar to those on Kv4.2 in CHO cells (Table 1).
A general note: Two-electrode voltage clamp holds a large cell at a set potential and records current.
Turning to B3, the “Inactivation time constant (ms ± SEM)” value was 70 ± 2 ms and the “Peak amplitude (μA ± SEM)” value is 40 ± 4 μA.

With B4, the “Inactivation time constant (ms ± SEM)” value was found to be 74 ± 4 ms and the “Peak amplitude (μA ± SEM)” value came out at 44 ± 5 μA. For B5, in that order: 90 ± 3 ms and 44 ± 3 μA.

With B6, the “Inactivation time constant (ms ± SEM)” value came to 87 ± 4 ms and the “Peak amplitude (μA ± SEM)” value is given as 51 ± 4 μA.

Another assay deals with T2, rKv4.3N (Rattus norvegicus, UniProt Q62897).
T2 construct: expressed in transfected cells; host or cells: yeast HF7c (bait), mated with Y187 (fish)
T2 sequence (Q62897 1-180): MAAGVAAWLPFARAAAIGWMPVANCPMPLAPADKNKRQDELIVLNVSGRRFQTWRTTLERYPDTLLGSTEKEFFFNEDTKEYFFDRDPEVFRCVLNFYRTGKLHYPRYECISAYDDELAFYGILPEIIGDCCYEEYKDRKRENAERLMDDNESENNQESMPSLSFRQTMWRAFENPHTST
In words: Yeast two-hybrid binding and specificity test, Kv4.3 N-terminal bait.
Details: not given
On the procedure:
The first 180 amino acids of rKv4.3 (described in Serdio P. et al. (1996) J. Neurophys 75:2174-2179) were amplified by PCR and cloned in frame into pGBT9 resulting in plasmid pFWA2, (hereinafter “bait”). This bait was transformed into the two-hybrid screening strain HF7c and tested for expression and self-activation. The bait was validated for expression by Western blotting.
Two-hybrid screens were carried out essentially as described in Bartel, P. et al. (1993) “Using the Two-Hybrid System to Detect Polypeptide-Polypeptide Interactions” in Cellular Interactions in Development: A Practical Approach, Hartley, D. A. ed. Oxford University Press, Oxford, pp. 153-179, with a bait-library pair of rkv4.3 bait-rat mid brain library. A filter disk beta-galactosidase (beta-gal) assay was performed essentially as previously described (Brill et al. (1994) Mol. Biol. Cell. 5:297-312). Clones that were positive for both reporter gene activity (His and beta-galactosidase) were scored and fish, plasmids were isolated from yeast, transformed into E. coli strain KC8, DNA plasmids were purified and the resulting plasmids were sequenced by conventional methods (Sanger F. et al. (1977) PNAS, 74: 5463-67).
Positive interactor clones were subjected to a binding specificity test where they were exposed to a panel of related and unrelated baits by a mating scheme previously described (Finley R. L. Jr. et al. (1994) PNAS, 91(26):12980-12984). Briefly, positive fish plasmids were transformed into Y187 and the panel of baits were transformed into HF7c. Transformed fish and bait cells were streaked out as stripes on selective medium plates, mated on YPAD plates, and tested for reporter gene activity.
With B3, the “binding to rKv4.3N in yeast two-hybrid assay” value is “able to bind to the Kv4.3 polypeptide”.

B7: the “binding to rKv4.3N in yeast two-hybrid assay” value is listed as “able to bind to the Kv4.3 polypeptide”.
